Measurements from the supplement of paper PMC9170038.

System: K4 kissing-loop RNA reporter
Test: apparent KD of K4 kissing-loop reporter; higher = weaker reporter binding
Conditions: Eterna round: R107
Protocol: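 RNA-MaP round R107: designed RNA switches with theophylline, tryptophan, arginine or FMN aptamers are transcribed on-chip within common flanks. They are titrated with a labelled K4 kissing-loop RNA reporter in RNA-MaP buffer (100 mM Tris pH 7.5, 80 mM KCl, 4 mM MgCl2), without ligand or with the indicated ligand. Median apparent KD per design.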

[1] = input ligand: theophylline 20 uM
[2] = input ligand: tryptophan 2.4 mM
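Note: bound reporter read as fluorescence of individual clusters on recovered sequencing chips by microscopy, with normalized cluster intensities fitted with a binding model.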

Sequence | apparent KD of K4 kissing-loop reporter (input ligand: FMN 200 uM) [nM] | apparent KD of K4 kissing-loop reporter (input ligand: arginine 13.2 mM) [nM] | apparent KD of K4 kissing-loop reporter (input ligand: none) [nM] | apparent KD of K4 kissing-loop reporter [1] [nM] | apparent KD of K4 kissing-loop reporter [2] [nM]
CAUACGCAUGGAGGAUAUGAGAUUUUUCAUAUUAUUUUUUAUUCUCAGUGAUGUUGGGAUUUAUAAUCAGAAGGCCAUGUGUAUG [Ex FMN B 11] | 88.4 | 79.2 | 84.9 | 94.7 | 88.9
CAUAGACAAGUGAUGUUUGUCAUAACCGAAGGAGCGUCUUUAAAGACAGGUAGGUCGCGGAUUAAUUAAGUUAUUAUUCUUUUUA [JR_SSArginiA_Sub018] | 552 | 494 | 644 | 573 | 439
CAUUAAACUCAAACUAUUGGGUUUACGUUCCGAGGACCGGUACGGCCGCCACUCGGUCGAUGCUAUACCAUACGAGUGAUGUUCG [theeternabot_sameState_KL_Trp_A_1] | 465 | 452 | 502 | 404 | 352
CAUUCACGGCGAGUCGAAGUGAUGUUUCGGCGAGGACCGGUACGGCCGCCACUCGGAUAAAUAUAGCUUAUCACAUACACUUUCG [theeternabot_exclusion_KL_Trp_A_27] | 159 | 128 | 140 | 186 | 132
CCAAUCUGUUACGAUACCAGUCAAAGAUAUUUUAUCAAUGCCCUCACCGAGUGAUGUUCGGACCCUUGGCAGCGUCUGGGAUAGG [ddfcmullin] | 165 | 142 | 186 | 165 | 149
CCAAUCUUUUACGAUACCAGUCUAAUAUAUUUAAUCAAAACCCUCGCCGAGUGAUGUUCGGACCCUUGGCAGCGUUUGCGAGAGG [xssgstkmullin] | 656 | 365 | 543 | 452 | 424
CCAUUCAUUUACGAUACCAGUCUAAUAUAUUUAAUCAAAACCCUCGCCGAGUGAUGUUCGGACCCUUGGCAGCGUCUGCGAGAGG [oookmullin] | 596 | 464 | 598 | 535 | 452
CCAUUCUGUUACGAUACCAGUCUAAUAUAUUUGAUCAAUACCCUCGCCGAGUGAUGUUCGGACCCUUGGCAGCGUCUGGGACAGG [bbybmullin] | 453 | 377 | 410 | 440 | 364
CCCUAAAUAUGCAGUGAUGUUGCAACUGAUACCAGUAUCGAAAGAUACCCUUGGCAGCGGAAAACCGCUACGUAAUUUAAAAGGG [Ex Theophylline A K4 19] | 243 | 327 | 356 | 385 | 243
CCGAAGAACCAGUGAUGUUGGUUGACUAGACAGGAUAUGAGCAACAUCAGAAGGGUCUGGCUUCGGGAGUGGGUUGCGCUGACCU [Onbizaes] | 283 | 259 | 616 | 296 | 576
CCGCUACCCUCAGGAUAUUAAUAUGGAGUGAUGUUCUAUGUCCGAUGGCGGAAACGCCAUCGGGAAUAAGAAGGGAGGGUAGCGG | 189 | 261 | 482 | 313 | 329
CCGGCCCAGCCGGAUACCAGUGCGCCGCAGGGAACGGCGGGCCCAGAGUGAUGUUCGGGACACCCUUGGCAGCCGCCUGGGUCCC [#2 Same State - Theophylline B Attempt #30 (HarryS)] | 618 | 364 | 669 | 355 | 435
CCGGCCCAGCCGGAUACCAGUGCGCCGCAGGGAACGGCGGGCCCAGAGUGAUGUUCGGGACACCCUUGGCAGCCGCCUGGGUCCU [#2 Same State - Theophylline B Attempt #29 (HarryS)] | 850 | 662 | 718 | 767 | 864
CCGGCCCGGCCGGAUACCAGUGCGCCGCUGGGAACCGCGGGCCCAGAGUGAUGUUCGGGACACCCUUGGCAGCCGCCUGGGUCGC [#2 Same State - Theophylline B Attempt #24 (HarryS)] | 398 | 140 | 247 | 217 | 240
CCGUAUGUCCACUAUUGAGUGAUGUUCAAGCGAGGACCGGUACGGCCGCCACUCGCGUUACCCACCACGUGUCGCCGCACUUACC [theeternabot_exclusion_KL_Trp_A_42] | 203 | 160 | 203 | 159 | 370
CCGUGGAGUGAUGUUCCACGUACUACGGAUACCAGCUUUGCCAAAGGCCCUUGGCAGCCGCACGUUGCAGUGAUGUUGUGGCGCG [Same State Theophylline A G9] | 345 | 241 | 327 | 328 | 299
CCGUGGAGUGAUGUUCCACGUUCUACGGAUACCAGCCACGCCAGCGGCCCUUGGCAGCCGCACCUUGCAGUGAUGUUGUGAGGCU [Same State Theophylline A GF 5] | 365 | 312 | 349 | 330 | 302
CCUUCUCUUGAUAGUGAUGUUAUCGAGGACAAGGAUAUCAUCUCAAUGAGAAGGUGUCCUUGAUAACAUGGAGGUCUGAAACAGA [Omei KL FMN A Exc C v9] | 205 | 355 | 439 | 427 | 454
CCUUUCUGUUACGAUACCAGUCUAAUAUAUUUGAUCAAUACCCUCGCCGAGUGAUGUUCGGACCCUUGGCAGCGUCUGGGACAGG [aazwmullin] | 482 | 438 | 493 | 468 | 451
CGAGAAAGAGCGACUGGCGAUCUGUCUGAAGGAGCGGGUGCUAGCCCAGGUAGGUCGCAGACUUUGACGCCAGUGAUGUUGGCGG [Titidiisxe] | 210 | 175 | 222 | 134 | 178
CGAGUGAUGUUCGAAGAGUUGUUAAGCGAUACCAGCUAGGAAACUGGCCCUUGGCAGCGUAAUAAAUAAAUAAAUAAAUGAUCAC [whbob_Ex_Theo_A_th62] | 351 | 414 | 369 | 456 | 322
